Target: p21-binding domain of PAK-1 fused to agarose beads (GST-Pak1-Rac/Cdc42-binding domain), as used in the Rac1 activation kit (UniProt Q13153)
Assay: PAK-1 p21-binding domain (PAK-PKB) pull-down from cell lysate, blot with anti-syndecan-4 or anti-GFP

Chain of p21-binding domain of PAK-1 fused to agarose beads (GST-Pak1-Rac/Cdc42-binding domain), as used in the Rac1 activation kit (Q13153 67-150 limits assumed): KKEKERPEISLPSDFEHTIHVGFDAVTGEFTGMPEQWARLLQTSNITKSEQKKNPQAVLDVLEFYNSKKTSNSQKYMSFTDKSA

amount of pulled-down syndecan-4 against the Ser179Ala line (% less than Ser179Ala line): 20
Substance: wt-syndecan-4-GFP chimera (human syndecan-4, wild type, GFP inserted at position 131) (from UniProt P31431 19-198)

— patent publication US20110124572A1, “SYNDECAN-4 IS A REGULATOR OF RAC1-GTP” (priority 2008, published 2011)
